This note sets out measurements from US8586357B2, “Markers of definitive endoderm” (ViaCyte, Inc., priority 2003, dated 2013).

What all share (assay type): cell-based, human
Assay [1] has as its system hESCs. The experiment in a line: Validation of definitive endoderm markers by Q-PCR (Example 12). The conditions noted are these: 100 ng/ml activin A vs no exogenous activin A; Example 12 written in present tense. On the procedure: Using the methods, such as those described in the above Examples, hESCs are differentiated to produce definitive endoderm. In particular, to increase the yield and purity of definitive endoderm in differentiating cell cultures, the serum concentration of the medium is controlled as follows: 0% FBS on day 1, 0.2% FBS on day 2 and 2.0% FBS on days 3-6. Differentiating cell populations are grown in the presence of 100 ng/ml activin A, whereas non-differentiating control populations are grown in the absence of activin A. Human embryonic cell cultures grown in the presence or absence of activin A and in either 2% serum or 10% serum over the entire 6 day differentiation period are also monitored. Daily samples of each culture are withdrawn and the amount of mRNA transcript produced for each of the markers AGPAT3, APOA2, C20orf56, C21orf129, CALCR, CCL2, CER1, CMKOR1, CRIP1, CXCR4, CXorf1, DIO3, DIO3OS, EB-1, EHHADH, ELOVL2, EPSTI1, FGF17, FLJ10970, FLJ21195, FLJ22471, FLJ23514, FOXA2, FOXQ1, GATA4, GPR37, GSC, LOC283537, MYL7, NPPB, NTN4, PRSS2, RTN4RL1, SEMA3E, SIAT8D, SLC5A9, SLC40A1, SOX17, SPOCK3, TMOD1, TRPA1, TTN, AW166727, AI821586, BF941609, AI916532, BC034407, N63706 and AW772192 is measured by Q-PCR.

For assay [2], the system named is hESCs. The experiment in a line: AFP antibody-labeled cell number by flow cytometry. Particulars: presence vs absence of activin A; FIGS. 9A-B. From the text: As a further evidence of the specificity of the SOX17^hi/AFP^lo/TM^lo/SPARC^lo marker profile as predictive of definitive endoderm, SOX17 and AFP gene expression was quantitatively compared to the relative number of antibody labeled cells.
(Flow cytometry measures light scatter and fluorescence of single cells or particles in a stream.)

In assay [3] the test system is hESCs. The experiment in a line: Isolation of definitive endoderm cells by FACS using cell surface markers of Table 5 (Example 13). The conditions noted are these: 100, 50 or 25 ng/ml activin A; Example 13 written in present tense. On the procedure: Using methods, such as those described in the above Examples, hESCs are differentiated to produce definitive endoderm. In particular, to increase yield and purity of definitive endoderm in differentiating cell cultures, the serum concentration of the medium is controlled as follows: 0% FBS on day 1, 0.2% FBS on day 2 and 2.0% FBS on days 3-6. Differentiating cell populations are grown in the presence of 100 ng/ml, 50 ng/ml or 25 ng/ml activin A, whereas non-differentiating control populations are grown in the absence of activin A.
An appropriate amount of labeled antibody that binds to one of the markers listed above is added to a sample of each culture and labeling proceeds on ice. Cells are washed by adding PBS and pelleted. A second wash with buffer is completed then cells are resuspended. Secondary antibody (FITC conjugated secondary antibody is added and allowed to label for about 30 minutes followed by two washes in buffer as above. Cells are resuspended and analyzed and sorted using a FACS. Cells are collected directly into RLT lysis buffer for subsequent isolation of total RNA for gene expression analysis by real-time quantitative PCR.

Assay [4] concerns hESCs. Nature of the assay: Immunocytochemistry: SOX17, AFP and TM antibody labeling of differentiating hESCs. From the text: As described in detail herein, the SOX17 antibody was utilized to specifically examine effects of various treatments and differentiation procedures aimed at the production of SOX17 positive definitive endoderm cells. Other antibodies reactive to AFP, SPARC and Thrombomodulin were also employed to rule out the production of visceral and parietal endoderm (extra-embryonic endoderm).
As evidence that the SOX17 antibody is specific for human SOX17 protein and furthermore marks definitive endoderm, partially differentiated hESCs were co-labeled with SOX17 and AFP antibodies. […] However, AFP and SOX7 are not expressed in definitive endoderm cells at levels detectable by ICC, and thus, they be can employed as negative markers for bonifide definitive endoderm cells. It was shown that SOX17 antibody labels populations of cells that exist as discrete groupings of cells or are intermingled with AFP positive cells. […] Similarly, since parietal endoderm has also been reported to express SOX17, antibody co-labeling with SOX17 together with the parietal markers SPARC and/or Thrombomodulin (TM) can be used to identify the SOX17^+ cells which are parietal endoderm. As shown in FIGS. 6A-C, Thrombomodulin and SOX17 co-labelled parietal endoderm cells were produced by random differentiation of hES cells.
With the SOX17 antibody and Q-PCR tools described above we have explored a number of procedures capable of efficiently programming ESCs to become SOX17^hi/AFP^lo/SPARC/TM^lo definitive endoderm cells. We applied a variety of differentiation protocols aimed at increasing the number and proliferative capacity of these cells as measured at the population level by Q-PCR for SOX17 gene expression and at the level of individual cells by antibody labeling of SOX17 protein.
To determine the effect of TGFβ factor treatment at the individual cell level, a time course of TGFβ factor addition was examined using SOX17 antibody labeling. As previously shown in FIGS. 10A-F, there was a dramatic increase in the relative number of SOX17 labeled cells over time.
In these experiments, hESCs were differentiated by growing in RPMI medium (Invitrogen, Carlsbad, Calif.; cat#61870-036) supplemented with 0.5%, 2.0% or 10% FBS and either with or without 100 ng/mL activin A for 6 days. In addition, a gradient of FBS ranging from 0.5% to 2.0% over the first three days of differentiation was also used in conjunction with 100 ng/mL of activin A. After the 6 days, replicate samples were collected from each culture condition and analyzed for relative gene expression by real-time quantitative PCR. The remaining cells were fixed for immunofluorescent detection of SOX17 protein.

B1: Activin A: growth factor of the TGFβ superfamily, Nodal/Activin subgroup; definitive endoderm inducer (protein, UniProt P08476 311-426, looked up)
Inhibin beta A chain: GLECDGKVNICCKKQFFVSFKDIGWNDWIIAPSGYHANYCEGECPSHIAGTSGSSLSFHSTVINHYRMRGHSPFANLKSCCVPTKLRPMSMLYYDDGQNIIKKDIQNMIVEECGCS
In the case of B1, the “expression levels of the Table 4 markers (AGPAT3 ... AW772192)” value with hESCs [1] is listed as “high”. Moreover, the “decrease in AFP antibody-labeled cell number” value in the assay on hESCs [2] is “approximately 7 fold”. Also, the “number of cells positive for the Table 4 markers as dose is increased” value in the assay with hESCs [3] is given as “increase significantly”. The “difference in SOX17 antibody-labeled cell number, Activin A vs retinoic acid treated hESCs” value with hESCs [4] (FIG. 7B) worked out at 10 fold. The “SOX17+ cell number, dose response” value in the assay on hESCs [4] (FIG. 22) is “dose-dependent increase”. The “frequency of SOX17+ cells” value in the assay with hESCs [4] (high dose activin A, FBS at 10% (v/v), 6 days) is “much lower frequency”. For the same molecule, the “distribution of SOX17+ cells in the culture” value with hESCs [4] (high dose activin A, low FBS concentration (0.5%-2.0%), 6 days) is listed as “ubiquitously distributed”.
